Measured values from patent US20060165683A1, “Methods and compositions for control of bone formation via modulation of sympathetic tone” (priority 2001, published 2006).

Tests used:
[1] = test system: osteoblasts in calvariae of newborn mice; assay: In vivo osteoblast proliferation assay (BrdU labeling, calvariae); set-up: species or system mouse; conditions: newborn wt mice treated daily for 5 days; 40 μg isoproterenol or 4 μg dexamethasone
Experimental: Specimens were embedded in paraffin and sectioned at 6 μm. Brains were stained with 0.1% cresyl violet using standard procedures. Immunohistochemistry was performed according to standard protocols (see, e.g., Ausubel, 1995, Current Protocols in Molecular Biology, New York). […] BrdU incorporation was detected by immunohistochemistry using Zymed BrdU staining kit (Zymed Laboratories Inc.). Four pups per treatment were analyzed and 10 calvariae sections were counted per animal. NovaRED was used as a chromogenic peroxidase substrate. Sections were counterstained with hematoxylin.

[2] = test system: primary osteoblasts isolated from wild-type mice; assay: Leptin signaling in primary osteoblast cultures (Stat3 phosphorylation, immediate early genes, matrix synthesis and mineralization); type: cell-based, mouse
Experimental: Expression of leptin in osteoblasts was studied in subconfluent primary osteoblast cultures from wild-type mice which were maintained for 4 days in 10% FBS mineralization medium and then subsequently switched to 0.5% for 2 days and replaced daily. Medium was replaced 2 hours before a 20 min treatment with 80 ng/mL leptin (Sigma) or 40 ng/mL Oncostatin M (R&D Diagnostics) or vehicle. RNA extractions were performed using Triazol (Gibco). Northern blots were performed with 15 μg of total RNA according to methods well known in the art.
To determine whether or not leptin could transduce its signal in osteoblasts, serum-starved primary osteoblasts isolated from wild-type mice were treated with leptin. Primary osteoblast cultures from calvaria of newborn wild-type or db/db mice were established as previously described (Ducy et al., 1999, Genes Dev 13, 1025-1036) and maintained in mineralization medium (αMEMI 0.1 mg/mL ascorbic acid; 5 mM […]) supplemented with 10% […]. Cultures of mutant cells were maintained in this medium for 15 days before analysis. Cultures derived from wild-type mice were maintained for 10 days in this medium then the percentage of serum was reduced to 0.5% and the medium supplemented with 1.2 μg/mL leptin (Sigma) or vehicle for 5 days.
The phosphorylation of Stat3, a downstream effector of leptin signaling in its target cells (Tartaglia et al., 1995, Cell 83, 1263-1271; Baumann et al., 1996, Proc Natl Acad Sci USA 93, 8374-8378; Ghilardi et al., 1996, Proc Natl Acad Sci USA 93, 6231-6235; Vaisse et al., 1996, Nat Genet 14, 95-97), was monitored, in addition to the expression of two immediate early genes whose transcription is increased following leptin treatment of target cells (Elmquist et al., 1997, Endocrinology 138, 839-842). As a positive control oncostatin-M that induces Stat3 phosphorylation and activates the expression of the same two immediate early genes in osteoblasts (Levy et al., 1996, Endocrinology 137, 1159-1165) was utilized. Western blot analysis was performed to determine Stat3 phosphorylation as follows. Cells were lysed, protein extracts were separated on a 7.5% SDS-PAGE and blotted on nitrocellulose (Biorad) for immunoblotting assay by methods well known in the art. Analysis of Stat3 phosphorylation was performed using the PhosphoPlus Stat3 (Tyr7O5) Antibody kit (New England Biolabs) according to the manufacturer's instructions.
Finally, the effect of a long-term leptin treatment of primary osteoblast cultures from wild-type mice on extracellular matrix synthesis and bone matrix mineralization was determined. The presence of a collagen-rich extracellular matrix and of mineralization nodules was assessed by whole-mount staining of the cultures by the van Gieson and von Kossa reagent, respectively. No difference was observed when assessing collagen synthesis or mineralization nodule formation between control and leptin-treated cultures (FIG. 5E).

Dbh-deficient mice = assay: Leptin ICV infusion in Dbh-deficient mice; type: in vivo, mouse
Experimental: Wildtype (C57BL/6J) and mutant (C57BL/6J A^y/a, C57BL/6J ob/ob) mice were obtained from the Jackson laboratory and adrenal medullectomized mice from Harlan Tecklad laboratory. Dbh−/− mice were rescued as previously described (Thomas et al., 1998, Neurochem 70:2468-2476). Isoproterenol (Sigma) was injected intraperitoneally (ip) once daily for 6 weeks at 30 mg/kg (wt) or 3 mg/kg (ob/ob). Propranolol (Sigma) was added to the drinking water at a concentration of 0.5 g/l. For ICV infusion, a 28-gauge cannula (Brain infusion kit II, Alza) was implanted into the third ventricle as previously described infusing human leptin (Sigma) at 8 ng/hr or MT-II at 125 ng/hr (Phoenix Pharmaceuticals) for 28 days (see, e.g., Ducy et al., 2000, Cell 100: 197-207). The cannula was connected to an osmotic pump (Alza) placed in the dorsal subcutaneous space of the animal. For parabiosis longitudinal incisions were made in the skin and in the peritoneal cavity along one side on each mouse. Edges of the incisions were connected by suture to induce coelioanastomosis. Cross-circulation was quantified by injecting 1 ml/kg 0.25% Evans blue into the tail vein of one mouse of the parabiosed pair. After 30 min. blood was collected from both mice by retroorbital bleeding and the blood exchange rate was calculated according to standard techniques (see, e.g., Harris & Martin, 1984, Am J Physiol 247:R380-386). […]

Molecule: CC(C)NCC(O)c1ccc(O)c(O)c1 (stereo not drawn) [isoproterenol]
- number of BrdU positive cells in calvariae compared to control mice (osteoblast proliferation) [1]: nearly two-fold reduction

B1: leptin: polypeptide hormone, product of the ob gene; human leptin (Sigma) infused ICV (protein)
chain: VPIQKVQDDTKTLIKTIVTRINDISHTQSVSAKQRVTGLDFIPGLHPILSLSKMDQTLAVYQQVLTSLPSQNVLQIANDLENLRDLLHLLAFSKSCSLPQTSGLQKPESLDGVLEASLYSTEVVALSRLQGSLQDILQQLDVSPEC
- collagen synthesis or mineralization nodule formation vs control cultures ([2]; long-term treatment, 1.2 μg/mL leptin for 5 days, 0.5% serum): No difference
- expression of Tis11 and c-fos (Northern analysis) ([2]; primary osteoblasts, 20 min treatment): not
- Stat3 phosphorylation (Western blot) ([2]; serum-starved primary osteoblasts, 20 min, leptin 80 ng/mL, Oncostatin M 40 ng/mL): did not
- bone mass (Dbh-deficient mice): failed to decrease
- gonadal fat pad (Dbh-deficient mice): near disappearance
